Data taken from patent US20140105889A1 (published 2014).
Read-outs that look alike come from different tables or passages of the source.

How the values were obtained:
FcγRIIb [1] = molecular target: T1, FcγRIIb (human, UniProt P31994 43-217, limits assumed); assay: ratio of SPR KD values; parent polypeptide is IL6R-B3/IL6R-L
T1 construct: also called FcγIIB; FcgRIIb
T1 sequence: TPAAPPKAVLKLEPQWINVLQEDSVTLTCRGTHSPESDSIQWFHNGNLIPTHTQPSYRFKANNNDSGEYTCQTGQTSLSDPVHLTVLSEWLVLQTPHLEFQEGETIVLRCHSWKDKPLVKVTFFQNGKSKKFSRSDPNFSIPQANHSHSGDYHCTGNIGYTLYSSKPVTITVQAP

FcγRIIb [2] = molecular target: T1, FcγRIIb; assay: ratio of SPR KD values of this variant (FcγRIIaH over FcγRIIb)
FcγRIIb [3] = molecular target: T1, FcγRIIb; assay: ratio of SPR KD values of this variant (FcγRIIaR over FcγRIIb)
FcγRIIa type H = molecular target: T2, FcγRIIa type H (human, UniProt P12318 36-217); assay: SPR (Biacore), captured antibody, FcγR as analyte, method of Example 14
T2 construct: also called FcγRIIaH; FcγRIIa(H)
T2 sequence: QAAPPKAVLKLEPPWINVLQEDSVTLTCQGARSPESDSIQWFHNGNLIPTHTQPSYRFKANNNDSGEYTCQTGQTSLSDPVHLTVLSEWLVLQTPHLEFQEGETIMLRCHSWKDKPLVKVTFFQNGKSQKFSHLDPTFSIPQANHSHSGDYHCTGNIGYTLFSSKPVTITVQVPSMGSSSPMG

mouse FcγRIV = molecular target: T3, mouse FcγRIV (mouse); assay: SPR (Biacore), antibody captured on Protein L, mouse FcγR as analyte, pH 7.4, 25 C
T3 construct: Bought soluble receptor; also called mFcgRIV; mFcgR IV

human FcγRIIIa(F) = molecular target: T4, human FcγRIIIa(F) (human, UniProt P08637 17-208, limits assumed); assay: SPR (Biacore), antibody captured on Protein L, human FcγR as analyte, pH 7.4, 25 C
T4 construct: also called hFcgRIIIa(F); hFcgRIIIa

[4] = molecular target: T5, human FcRn (soluble human FcRn complexed with β2-microglobulin) (human, UniProt P61769 21-119); assay: Biacore SPR, pH 7.0, 25 C; antibody captured by Protein L, human FcRn as analyte
T5 construct: also called hFcRn

human FcγRIIa type H = molecular target: T6, human FcγRIIa type H (human, UniProt P12318 36-217); assay: SPR (Biacore), captured antibody, FcγR as analyte, 25 C
T6 construct: also called FcγRIIaH; FcγRIIa(H)
T6 sequence: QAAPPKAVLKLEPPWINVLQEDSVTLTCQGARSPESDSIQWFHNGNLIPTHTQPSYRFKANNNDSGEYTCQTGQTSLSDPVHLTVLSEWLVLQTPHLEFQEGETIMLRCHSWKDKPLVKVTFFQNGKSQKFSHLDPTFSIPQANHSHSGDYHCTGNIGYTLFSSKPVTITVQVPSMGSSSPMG

human FcγRIIb [5] = molecular target: T7, human FcγRIIb (human, UniProt P31994 43-217, limits assumed); assay: ratio of this variant's SPR KD for FcγRIIaH to its KD for FcγRIIb
T7 construct: also called FcγIIB; hFcgRIIb
T7 sequence: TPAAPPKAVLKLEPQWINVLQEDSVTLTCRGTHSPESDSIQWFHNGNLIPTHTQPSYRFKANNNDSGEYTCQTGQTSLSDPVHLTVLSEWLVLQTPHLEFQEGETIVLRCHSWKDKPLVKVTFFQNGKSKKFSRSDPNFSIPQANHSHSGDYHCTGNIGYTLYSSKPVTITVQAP

human FcγRIIb [6] = molecular target: T7, human FcγRIIb; assay: ratio of this variant's SPR KD for FcγRIIaR to its KD for FcγRIIb
human FcγRIIb [7] = molecular target: T7, human FcγRIIb; assay: SPR KD for FcγRIIb of parent IL6R-B3/IL6R-L divided by that of this variant
human FcRn [8] = molecular target: T8, human FcRn (human); assay: SPR (Biacore), pH 7.0, 25 C, antibody captured by Protein L, human FcRn as analyte
T8 construct: also called hFcRn; soluble human FcRn complexed with β2-microglobulin

[9] = molecular target: T5, human FcRn (soluble human FcRn …); assay: Biacore SPR, pH 7.0, 25 C; antibody captured by Protein L, human FcRn as analyte; remark: listed apart in the source
human FcγRIIb [10] = molecular target: T7, human FcγRIIb; assay: SPR (Biacore), captured antibody, FcγR as analyte, 25 C
human FcRn [11] = molecular target: T9, human FcRn (human); assay: SPR (Biacore), pH 7.0, 25 C; antibody captured on Protein L, human FcRn injected
T9 construct: Soluble human FcRn complexed with beta2-microglobulin; also called hFcRn; soluble human FcRn complexed with β2-microglobulin

T5 sequence (chain, as listed by the source limits assumed, chain 1 of 2): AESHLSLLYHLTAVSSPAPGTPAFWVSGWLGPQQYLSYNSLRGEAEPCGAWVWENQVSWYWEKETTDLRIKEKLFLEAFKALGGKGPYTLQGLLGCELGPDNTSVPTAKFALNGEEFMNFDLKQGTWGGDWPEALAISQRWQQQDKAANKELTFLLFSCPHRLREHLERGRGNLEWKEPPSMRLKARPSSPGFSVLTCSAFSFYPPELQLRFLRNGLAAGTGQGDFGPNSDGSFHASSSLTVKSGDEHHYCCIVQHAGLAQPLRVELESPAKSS
T5 sequence (P61769 21-119 limits assumed, chain 2 of 2): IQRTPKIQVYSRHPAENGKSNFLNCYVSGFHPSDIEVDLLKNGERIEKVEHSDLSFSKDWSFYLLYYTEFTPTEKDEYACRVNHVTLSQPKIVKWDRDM
T4 sequence (P08637 other isoform, or with tags, fused parts or gaps limits assumed): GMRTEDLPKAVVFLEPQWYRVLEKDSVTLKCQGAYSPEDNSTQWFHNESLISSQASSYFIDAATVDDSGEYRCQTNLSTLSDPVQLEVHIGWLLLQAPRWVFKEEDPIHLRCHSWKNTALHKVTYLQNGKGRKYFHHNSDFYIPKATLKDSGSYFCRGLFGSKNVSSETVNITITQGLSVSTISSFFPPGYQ
T3 sequence (A0A0B4J1G0 21-203): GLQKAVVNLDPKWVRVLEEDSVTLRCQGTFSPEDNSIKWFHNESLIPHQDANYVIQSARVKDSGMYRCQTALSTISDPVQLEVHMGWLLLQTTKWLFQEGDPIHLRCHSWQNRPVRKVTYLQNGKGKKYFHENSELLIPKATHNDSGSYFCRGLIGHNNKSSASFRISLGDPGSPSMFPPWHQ

B1: IL6R-BP149/IL6R-L (antibody, human IgG1)
heavy: QVQLQESGPGLVKPSETLSLTCAVSGHSISHDHAWSWVRQPPGEGLEWIGFISYSGITNYNPSLQGRVTISRDNSKNTLYLQMNSLRAEDTAVYYCARSLARTTAMDYWGEGTLVTVSSASTKGPSVFPLAPSSKSTSGGTAALGCLVKDYFPEPVTVSWNSGALTSGVHTFPAVLQSSGLYSLSSVVTVPSSSLGTQTYICNVNHKPSNTKVDKKVEPKSCDKTHTCPPCPAPDYLGDDSVFLFPPKPKDTLMISRTPEVTCVVVDVSHEDPEVKFNWYVDGVEVHNAKTKPREEQDNSTYRVVSVLTVLHQDWLNGKEYKCKVSNAALPKPIEKTISKAKGQPREPQVYTLPPSRDELTKNQVSLTCLVKGFYPSDIAVEWESNGQPENNYKTTPPVLDSDGSFFLYSKLTVDKSRWQQGNVFSCSVMHEALHNHYTQESLSLSP
light: DIQMTQSPSSLSASVGDRVTITCRASQDISSYLNWYQQKPGKAPKLLIYYTSRLHSGVPSRFSGSGSGTDFTFTISSLQPEDIATYYCQQGNTLPYTFGQGTKVEIK
notes: EU numbering
- KD(IIb) of the parent polypeptide/KD(IIb) of the altered polypeptide (FcγRIIb [1]): 53.1
- KD (IIaH)/KD (IIb) (FcγRIIb [2]): 89.9
- KD (IIaR)/KD (IIb) (FcγRIIb [3]): 13
- Kd (FcγRIIa type H): 5400 nM

B2: VH3/L(WT)-IgG1-F21 (antibody)
heavy: QVQLQESGPGLVKPSETLSLTCAVSGHSISHDHAWSWVRQPPGEGLEWIGFISYSGITNYNPSLQGRVTISRDNSKNTLYLQMNSLRAEDTAVYYCARSLARTTAMDYWGEGTLVTVSSASTKGPSVFPLAPSSKSTSGGTAALGCLVKDYFPEPVTVSWNSGALTSGVHTFPAVLQSSGLYSLSSVVTVPSSSLGTQTYICNVNHKPSNTKVDKKVEPKSCDKTHTCPPCPAPELLGGPSVFLFPPKPKDTLYISRTPEVTCVVVDVSHEDPEVKFNWYVDGVEVHNAKTKPREEQYNSTYRVVSVLTPLHQDWLNGKEYKCKVSNKALPAPIEKTISKAKGQPREPQVYTLPPSRDELTKNQVSLTCLVKGFYPSDIAVEWESNGQPENNYKTTPPVLDSDGSFFLYSKLTVDKSRWQQGNVFSCSVMHEALHYHYTQKSLSLSP
light: not shown
notes: copies: 2 + 2
- BINDING AMOUNT (RU) (mouse FcγRIV): 242 RU
- BINDING AMOUNT (RU) (human FcγRIIIa(F)): 147 RU

B3: IgG1-F79 (antibody, name in EU numbering)
heavy: QVQLQESGPGLVKPSETLSLTCAVSGHSISHDHAWSWVRQPPGEGLEWIGFISYSGITNYNPSLQGRVTISRDNSKNTLYLQMNSLRAEDTAVYYCARSLARTTAMDYWGEGTLVTVSSASTKGPSVFPLAPSSKSTSGGTAALGCLVKDYFPEPVTVSWNSGALTSGVHTFPAVLQSSGLYSLSSVVTVPSSSLGTQTYICNVNHKPSNTKVDKKVEPKSCDKTHTCPPCPAPELLGGPSVFLFPPKPKDTLMITREPEVTCVVVDVSHEDPEVKFNWYVDGVEVHNAKTKPREEQYNSTYRVVSVLTVLHQDWLNGKEYKCKVSNKALPAPIEKTISKAKGQPREPQVYTLPPSRDELTKNQVSLTCLVKGFYPSDIAVEWESNGQPENNYKTTPPVLDSDGSFFLYSKLTVDKSRWQQGNVFSCSVMHEALHAHYTQKSLSLSP
light: not shown
notes: VH3-IgG1 Fc variant; EU numbering
- Kd [4]: 5900 nM

B4: IL6R-BP084/IL6R-L (antibody, human IgG1)
heavy: QVQLQESGPGLVKPSETLSLTCAVSGHSISHDHAWSWVRQPPGEGLEWIGFISYSGITNYNPSLQGRVTISRDNSKNTLYLQMNSLRAEDTAVYYCARSLARTTAMDYWGEGTLVTVSSASTKGPSVFPLAPSSKSTSGGTAALGCLVKDYFPEPVTVSWNSGALTSGVHTFPAVLQSSGLYSLSSVVTVPSSSLGTQTYICNVNHKPSNTKVDKKVEPKSCDKTHTCPPCPAPELLGGDSVFLFPPKPKDTLMISRTPEVTCVVVDVSHEDPEVKFNWYVDGVEVHNAKTKPREEQYNSTYRVVSVLTVLHQDWLNGKEYKCKMSNKALPKPIEKTISKAKGQPREPQVYTLPPSRDELTKNQVSLTCLVKGFYPSDIAVEWESNGQPENNYKTTPPVLDSDGSFFLYSKLTVDKSRWQQGNVFSCSVMHEALHNHYTQESLSLSP
light: DIQMTQSPSSLSASVGDRVTITCRASQDISSYLNWYQQKPGKAPKLLIYYTSRLHSGVPSRFSGSGSGTDFTFTISSLQPEDIATYYCQQGNTLPYTFGQGTKVEIK
notes: copies: 2 + 2
- Kd (human FcγRIIa type H): 2400 nM
- KD (IIaH)/KD (IIb) (human FcγRIIb [5]): 47.6
- KD (IIaR)/KD (IIb) (human FcγRIIb [6]): 14.3
- KD(IIb) of the parent polypeptide/KD(IIb) of the altered polypeptide (human FcγRIIb [7]): 5.1

B5: F1113 (antibody, name in EU numbering)
heavy: QVQLQESGPGLVKPSETLSLTCAVSGHSISHDHAWSWVRQPPGEGLEWIGFISYSGITNYNPSLQGRVTISRDNSKNTLYLQMNSLRAEDTAVYYCARSLARTTAMDYWGEGTLVTVSSASTKGPSVFPLAPSSKSTSGGTAALGCLVKDYFPEPVTVSWNSGALTSGVHTFPAVLQSSGLYSLSSVVTVPSSSLGTQTYICNVNHKPSNTKVDKKVEPKSCDKTHTCPPCPAPELLGGPSVFLFPPKPKDTLYISRTPEVTCVVVDVSHEDPEVKFNWYVDGVEVHNAKTKPREEQYNSTYRVVSVLTVLHQDWLNGKEYKCKVSNKALPAPIEKTISKAKGQPREPQVYTLPPSRDELTKNQVSLTCLVKGFYPSDIAVEWESNGQPENNYKTTPPVLDSDGSFFLYSKLTVDKSRWQQGNVFSCSVMHEALHYHVTQKDLSLSP
light: not shown
notes: copies: 2 + 2
- Kd (human FcRn [8]): 118 nM

B6: IgG1-F207 (antibody, name in EU numbering)
heavy: QVQLQESGPGLVKPSETLSLTCAVSGHSISHDHAWSWVRQPPGEGLEWIGFISYSGITNYNPSLQGRVTISRDNSKNTLYLQMNSLRAEDTAVYYCARSLARTTAMDYWGEGTLVTVSSASTKGPSVFPLAPSSKSTSGGTAALGCLVKDYFPEPVTVSWNSGALTSGVHTFPAVLQSSGLYSLSSVVTVPSSSLGTQTYICNVNHKPSNTKVDKKVEPKSCDKTHTCPPCPAPELLGGPSVFLFPPKPKDTLYISRTPEVTCVVVDVSHEDPEVKFNWYVDGVEVHNAKTKPREEQYNSTYRVVSVLKVLHQDWLNGKEYKCKVSNKALPAPIEKTISKAKGQPREPQVYTLPPSRDELTKNQVSLTCLVKGFYPSDIAVEWESNGQPENNYKTTPPVLDSDGSFFLYSKLTVDKSRWQQGNVFSCSVMHEALHYHYTQKSLSLSP
light: not shown
notes: as for B3
- Kd [9]: 940 nM

B7: IL6R-BP132/IL6R-L (antibody, human IgG1)
heavy: QVQLQESGPGLVKPSETLSLTCAVSGHSISHDHAWSWVRQPPGEGLEWIGFISYSGITNYNPSLQGRVTISRDNSKNTLYLQMNSLRAEDTAVYYCARSLARTTAMDYWGEGTLVTVSSASTKGPSVFPLAPSSKSTSGGTAALGCLVKDYFPEPVTVSWNSGALTSGVHTFPAVLQSSGLYSLSSVVTVPSSSLGTQTYICNVNHKPSNTKVDKKVEPKSCDKTHTCPPCPAPDLLGGDSVFLFPPKPKDTLMISRTPEVTCVVVDVSHEDPEVKFNWYVDGVEVHNAKTKPREEQYNSTYRVVSVLTVLHQDWLNGKEYKCKVSNAALPKPIEKTISKAKGQPREPQVYTLPPSRDELTKNQVSLTCLVKGFYPSDIAVEWESNGQPENNYKTTPPVLDSDGSFFLYSKLTVDKSRWQQGNVFSCSVMHEALHNHYTQESLSLSP
light: DIQMTQSPSSLSASVGDRVTITCRASQDISSYLNWYQQKPGKAPKLLIYYTSRLHSGVPSRFSGSGSGTDFTFTISSLQPEDIATYYCQQGNTLPYTFGQGTKVEIK
notes: copies: 2 + 2
- Kd (human FcγRIIb [10]): 270 nM
- KD (IIaH)/KD (IIb) (human FcγRIIb [5]): 61.1
- KD (IIaR)/KD (IIb) (human FcγRIIb [6]): 21.5
- KD(IIb) of the parent polypeptide/KD(IIb) of the altered polypeptide (human FcγRIIb [7]): 6.4

B8: IgG1-F722 (antibody)
heavy: QVQLQESGPGLVKPSETLSLTCAVSGHSISHDHAWSWVRQPPGEGLEWIGFISYSGITNYNPSLQGRVTISRDNSKNTLYLQMNSLRAEDTAVYYCARSLARTTAMDYWGEGTLVTVSSASTKGPSVFPLAPSSKSTSGGTAALGCLVKDYFPEPVTVSWNSGALTSGVHTFPAVLQSSGLYSLSSVVTVPSSSLGTQTYICNVNHKPSNTKVDKKVEPKSCDKTHTCPPCPAPELLGGDSVFLFPPKPKDTLYISRTPEVTCVVVDVSHEDPEVKFNWYVDGVEVHNAKTKPREEQYNSTYRVVSVLTVLHQDWLNGKEYKCKVSNKGLPAPIEKTISKAKGQPREPQVYTLPPSRDELTKNQVSLTCLVKGFYPSDIAVEWESNGQPENNYKTTPPVLDSDGSFFLYSKLTVDKSRWQQGNVFSCSVMHEALHYHYTQKSLSLSP
light: not shown
notes: Substitutions by EU numbering; copies: 2 + 2
- Kd (human FcRn [11]): 270 nM
